Source: US9228015B2, “Nogo receptor antagonists and methods of increasing neurite outgrowth” (Biogen Idec MA Inc., priority 2006, dated 2016)

Legend:
[1] = test system: rats with CST transection; experiment: BDA-labeled axon counts caudal to spinal cord transection in rats (Example 31); type: in vivo, rat; conditions: 15 mm caudal to the injury site
Procedure: Treatment with NgR(310)ecto-Fc or combined treatment with MP and NgR(310)ecto-Fc enhanced axonal plasticity/regeneration after spinal cord transection. Briefly, for histological tracing of the CSTs, 2 weeks after CST transection animals were re-anesthetized and an incision made in the scalp. The area around the skin incision was injected with a local anesthetic, the left sensorimotor cortex exposed via a craniotomy and 7 μL 10% biotin dextran amine (BDA; 10,000 MW; Molecular Probes, Eugene, Oreg., USA) in PBS injected using a nanoliter injector and micro4 controller at 12 points 0-3.5 mm posterior to Bregma and […] lateral to the midline at a depth of 1 mm below the surface of the cortex. In some instances, the CST was labeled bilaterally using the same procedure.
At 28 days after CST transection, the rats were anesthetized with inactin (100-110 mg/kg i.p.) and transcardially perfused with heparinized saline (100 ml, 10 iu heparin) followed by 4% paraformaldehyde (150 ml). […]
Frozen sections (50 μm) were serially cut and stained with strepavidin-conjugated AlexaFluor-594 (1:200; Molecular Probes) to visualize labeled CST axons. […] Every eighth section, i.e., sections 400 μm apart, was counted for each animal at each level of the cord and the values were expressed as mean number of axons per section.

[2] = test system: rats with dorsal hemisection (CST transection); experiment: Functional recovery after spinal cord transection in rats (BBB, stride length; Example 30); type: in vivo, rat
Procedure: Briefly, female Long Evans rats (7 weels old; Charles River, Wilmington, Mass., USA) were anesthetized using 25 mg/kg midazolam i.p. (Abott Laboratories, Chicago, Ill., USA) and 2-3% fluothane (Baxter, Deerfield, Ill., USA) in O2 and a dorsal laminectomy performed at spinal level T6 and T7. General anesthesia wa maintained at 1.5-2% fluothane in O2 A dorsal hemisection was performed completely interrupting the main dorsomedial and the mino dorsplateral corticospinal tract (CST) components. A microscapel was used to sterotaxically transect the cord at a depth of 1.8 mm from the surface of the cord. Immediately after CST transection, an intrathecal catheter was inserted into the subarachnoid space at T7 and connected to a primed mini-osmotic pump inserted into the subcutaneous space. […] Functional recovery was assessed using the BBB openfield scoring method (Basso et al., J. Neurotrauma 12:1-21 (1995)) the following day and weekly thereafter.
A discriminating point on the BBB score is a score of 14, corresponding to consistent weight supported planter steps and consistent hindlimb-forelimb coordination.

[3] = test system: chick dorsal root ganglion neurons, myelin-induced neurite outgrowth inhibition; experiment: Neurite outgrowth of embryonic day 13 chick DRG neurons on myelin (Example 29); type: cell-based; conditions: 8 μM NgR(310)ecto-Fc; MP 10 μg/nl as printed
Procedure: In investigating combined treatment with methyprednisolone (MP) and NgR(310)ecto-Fc for spinal cord injury (SCI), we sought to verify that these reagents have independent mechanisms of action. Briefly, myelin was dried overnight in poly-L-lysine-precoated plates (Becton Dickinson, Bedford, Mass., USA) at 80 or 400 ng/well (2.5 and 12.7 ng/mm^2, respectively). Wells were then coated with 10 µg/ml laminin (Calbiochem, La Jolla, Calif., USA) for 1 hour at foom temperature (22-24 C). Embryonic day 13 chick dorsal root ganglion neurons were dissociated and plated for 6-8 hours as previously described (GrandPre et al., 2000; Fournier et al., 2001). Neurons were treated with 8 μM NgR(310)ecto-Fc in the presence or absence of 10 μg/nl MP (Pharmacia, Kalamazoo, Mich., USA) for the entire outgrowth period. Neurons were then fixed and stained with βIII tubulin antibody (Covance, Princeton, N.J., USA) and neurite outgrowth was quantified using an automated cellular imaging and analysis system (Axon Instrument, Union City, Calif.; USA). Neurite outgrowth per cell was normalized to the average of duplicate control wells for each experiment (n=3). […] These in vitro data support the hypothesis that MP and NgR(310)ecto-Fc will enhance SCI recovery in a sequentially effective manner.

B1: NgR(310)ecto-Fc: ectodomain of the rat NgR1 (27-310) fused to a rat IgG (protein)
chain: PCPGACVCYNEPKVTTSRPQQGLQAVPAGIPASSQRIFLHGNRISYVPAASFQSCRNLTILWLHSNALAGIDAAAFTGLTLLEQLDLSDNAQLRVVDPTTFRGLGHLHTLHLDRCGLQELGPGLFRGLAALQYLYLQDNNLQALPDNTFRDLGNLTHLFLHGNRIPSVPEHAFRGLHSLDRLLLHQNHVARVHPHAFRDLGRLMTLYLFANNLSMLPAEVLVPLRSLQYLRLNDNPWVCDCRARPLWAWLQKFRGSSSGVPSNLPQRLAGRDLKRLATSDLEGCA
modifications: left off: a dimerising Fc or GST
notes: ectodomain of the rat NgR1 (27-310) fused to a rat IgG
number of BDA-labeled axons [1]: significantly greater numbers | BBB scores normalized to day 2 ([2]; 2, 3 and 4 weeks after SCI): significant improvement | mean stride length vs controls ([2]; 4 weeks after SCI): significantly improved | Mean BBB score ([2]; after 4 weeks): 14.8±0.24 | frequency of rats with BBB score of 14 or greater (consistent plantar stepping and coordinated movement) ([2]; by 4 weeks): 100% | effect on neurite outgrowth on a myelin substrate [3]: reverse the inhibition
